Where a chain is given by its changes, count along the chain named. Blank lines part the entries; values can stand above or below the binder they belong to.
How the values were obtained:
[1] = target: native tubulin purified from porcine brain, polymerised to microtubules (MTs) (porcine); assay: co-sedimentation
[2] = target: native tubulin purified from porcine brain, polymerised to microtubules (MTs) (porcine); assay: total internal reflection fluorescence microscopy
[3] = target: native tubulin purified from porcine brain, polymerised to microtubules (MTs) (porcine); assay: co-sedimentation; remark: listed apart in the source
[4] = target: native tubulin purified from porcine brain, polymerised to microtubules (MTs) (porcine); assay: co-sedimentation; remark: listed apart in the source

reduction of MT binding against Cdt1^92-546 [1]: 50%
B1: Cdt1^410-546 (N-terminal GFP fusion) (domain or fragment)
chain: ASPSALKGVSQDLLERIRAKEAQKQLAQMTRCPEQEQRLQRLERLPELARVLRSVFVSERKPALSMEVACARMVGSCCTIMSPGEMEKHLLLLSELLPDWLSLHRIRTDTYVKLDKAADLAHITARLAHQTRAEEGL

Kd [1]: 2200 nM | binding left in the presence of 250 mM NaCl [1]: 50% | Kd [2]: 460 nM | dwell time [2]: 2.37 s | kon [2]: 1070 M⁻¹ s⁻¹ | Kd [3]: 2030 nM | Kd [4]: 1850 nM
B2: Cdt1^92-546 (human Cdt1 devoid of the N-terminal 92 aa, N-terminal GFP fusion) (domain or fragment)
chain: PSPGQKIKKSTPAAGQPPHLTSAQDQDTISELASCLQRARELGARVRALKASAQDAGESCTPEAEGRPEEPCGEKAPAYQRFHALAQPGLPGLVLPYKYQVLAEMFRSMDTIVGMLHNRSETPTFAKVQRGVQDMMRRRFEECNVGQIKTVYPASYRFRQERSVPTFKDGTRRSDYQLTIEPLLEQEADGAAPQLTASRLLQRRQIFSQKLVEHVKEHHKAFLASLSPAMVVPEDQLTRWHPRFNVDEVPDIEPAALPQPPATEKLTTAQEVLARARNLISPRMEKALSQLALRSAAPSSPGSPRPALPATPPATPPAASPSALKGVSQDLLERIRAKEAQKQLAQMTRCPEQEQRLQRLERLPELARVLRSVFVSERKPALSMEVACARMVGSCCTIMSPGEMEKHLLLLSELLPDWLSLHRIRTDTYVKLDKAADLAHITARLAHQTRAEEGL

Kd [3]: 5500 nM
B3: Cdt1^92-546 8D (Aurora B phosphomimetic mutant) (domain or fragment)
chain: B2 chain with S10D, T11D, S52D, S174D, T179D, T196D, T238D, T267D

Kd [1]: 2290 nM
B4: full-length (FL) Cdt1^1-546, untagged (natural protein)
chain: MEQRRVTDFFARRRPGPPRIAPPKLACRTPSPARPALRAPASATSGSRKRARPPAAPGRDQARPPARRRLRLSVDEVSSPSTPEAPDIPACPSPGQKIKKSTPAAGQPPHLTSAQDQDTISELASCLQRARELGARVRALKASAQDAGESCTPEAEGRPEEPCGEKAPAYQRFHALAQPGLPGLVLPYKYQVLAEMFRSMDTIVGMLHNRSETPTFAKVQRGVQDMMRRRFEECNVGQIKTVYPASYRFRQERSVPTFKDGTRRSDYQLTIEPLLEQEADGAAPQLTASRLLQRRQIFSQKLVEHVKEHHKAFLASLSPAMVVPEDQLTRWHPRFNVDEVPDIEPAALPQPPATEKLTTAQEVLARARNLISPRMEKALSQLALRSAAPSSPGSPRPALPATPPATPPAASPSALKGVSQDLLERIRAKEAQKQLAQMTRCPEQEQRLQRLERLPELARVLRSVFVSERKPALSMEVACARMVGSCCTIMSPGEMEKHLLLLSELLPDWLSLHRIRTDTYVKLDKAADLAHITARLAHQTRAEEGL

From article doi:10.1101/194993
